Laboratory results reported in article PMC3374083 (Cell Death and Differentiation, 2012).

B1: human Fas ligand, recombinant (ligand)
chain: QIGHPSPPPEKKELRKVAHLTGKSNSRSMPLEWEDTYGIVLLSGVKYKKGGLVINETGLYFVYSKVYFRGQSCNNLPLSHKVYMRNSKYPQDLVMMEGKMMSYCTTGQMWARSSYLGAVFNLTSADHLYVNVSELSLVNFEESQTFFGLYKL
B2: monomeric human Fas receptor extracellular domain (domain or fragment)
chain: QVTDINSKGLELRKTVTTVETQNLEGLHHDGQFCHKPCPPGERKARDCTVNGDEPDCVPCQEGKEYTDKAHFSSKCRRCRLCDEGHGLEVEINCTRTQNTKCRCKPNFFCNSTVCEHCDPCTKCEHGIIKECTLTSNTKCKEEGSRSN

How the values were obtained:
[1] = target: B2; experiment: cell-based or functional assay
[2] = target: B2; experiment: cell-based or functional assay; remark: listed apart in the source
[3] = target: B1; experiment: SPR

| Binder | DNA fragmentation (oligonucleosomes in the cytosol) in Jurkat cells, 8 h, EC50 [1] [nM] | Jurkat cell killing (cell-viability assay), EC50 [2] [nM] | Kd [3] [nM] |
| --- | --- | --- | --- |
| B1 | 2.8 | 7.1 |  |
| B2 |  |  | 14 |
